{"source": "patent US9694061B2", "about": "“Fully human antibodies to high molecular weight-melanoma associated antigen and uses thereof” (University of Pittsburgh—Of the Commonwealth System of …, priority 2008, dated 2017)", "molecules": {"B1": {"name": "scFv C21: HMW-MAA-specific fully human scFv from semi-synthetic phage display library; VH SEQ ID NO: 5, VL SEQ ID NO: 6 (antibody, listed as Homo sapiens, V domains shown)", "VH": "QVQLVQSGAEVKKPGSSVKVSCKASGGTFSSYAISWVRQAPGQGLEWMGGIIPIFGTANYAQKFQGRVTITADESTSTAYMELSSLRSDDTAVYYCARALDPITFDSWGQGTLVTVSR", "VL": "SELTQDPAVSVALGQTVRITCQGDSLRSYYASWYQQKPGQAPVLVIYGKNNRPSGIPDRFSGSSSGNTASLTITGAQAEDEADYYCNSRDSSGNHVVFGGGTKLTVLGRS", "modifications": "scFv linker"}}, "key": {"[1]": {"tested_on": "HMW-MAA", "test": "ELISA of soluble scFv antibodies with cell lines", "assay_type": "binding, human", "settings": "soluble scFv clones isolated by panning with Colo38 cells", "protocol": "(§1) FIG. 1. Selective reactivity in ELISA of soluble scFv C21 with HMW-MAA^+ human cell lines. […] Binding of scFv fragments was detected using SA-HRP. Results are expressed as absorbance at 490 nm. Human anti-anti-id scFv #119 ( ? ) was used as a specificity control.\n(§2) The ELISA to test the reactivity of soluble scFv antibodies with synthetic peptides and melanoma cells and of mouse immune sera with melanoma cells and with peptides was performed as described (Desai et al., Cancer Res 58:2417-2425, 1998; Desai et al., J Immunol 165:3275-3283, 2000; Matsui et al., J Immunol 139:2088-2095, 1987). Results are expressed as absorbance of optical density (O.D.) at 450 nm. The competition assay to map the antigenic determinant recognized by scFv C21 was performed by mixing biotinylated scFv C21 (0.25 μg/well) with two-fold dilutions of mouse mAb or scFv PP or by mixing biotinylated mAb (at an optimal amount giving absorbance, measured at 450 nm of 1.0) with two fold dilutions of scFv PP. […] Binding of biotinylated scFv antibodies and biotinylated mAb to target cells was measured by sequential incubation with SA-HRP and substrate as described (Noronha et al., J Immunol 161:2968-2976, 1998). The results are expressed as percent inhibition by mAb, scFv or peptide (competitor or inhibitor) of scFv or mAb binding to HMW-MAA^+ cells. […]"}, "[2]": {"target": "T1, HMW-MAA (Homo sapiens, UniProt Q6UVK1)", "T1 sequence (Q6UVK1 30-2322)": "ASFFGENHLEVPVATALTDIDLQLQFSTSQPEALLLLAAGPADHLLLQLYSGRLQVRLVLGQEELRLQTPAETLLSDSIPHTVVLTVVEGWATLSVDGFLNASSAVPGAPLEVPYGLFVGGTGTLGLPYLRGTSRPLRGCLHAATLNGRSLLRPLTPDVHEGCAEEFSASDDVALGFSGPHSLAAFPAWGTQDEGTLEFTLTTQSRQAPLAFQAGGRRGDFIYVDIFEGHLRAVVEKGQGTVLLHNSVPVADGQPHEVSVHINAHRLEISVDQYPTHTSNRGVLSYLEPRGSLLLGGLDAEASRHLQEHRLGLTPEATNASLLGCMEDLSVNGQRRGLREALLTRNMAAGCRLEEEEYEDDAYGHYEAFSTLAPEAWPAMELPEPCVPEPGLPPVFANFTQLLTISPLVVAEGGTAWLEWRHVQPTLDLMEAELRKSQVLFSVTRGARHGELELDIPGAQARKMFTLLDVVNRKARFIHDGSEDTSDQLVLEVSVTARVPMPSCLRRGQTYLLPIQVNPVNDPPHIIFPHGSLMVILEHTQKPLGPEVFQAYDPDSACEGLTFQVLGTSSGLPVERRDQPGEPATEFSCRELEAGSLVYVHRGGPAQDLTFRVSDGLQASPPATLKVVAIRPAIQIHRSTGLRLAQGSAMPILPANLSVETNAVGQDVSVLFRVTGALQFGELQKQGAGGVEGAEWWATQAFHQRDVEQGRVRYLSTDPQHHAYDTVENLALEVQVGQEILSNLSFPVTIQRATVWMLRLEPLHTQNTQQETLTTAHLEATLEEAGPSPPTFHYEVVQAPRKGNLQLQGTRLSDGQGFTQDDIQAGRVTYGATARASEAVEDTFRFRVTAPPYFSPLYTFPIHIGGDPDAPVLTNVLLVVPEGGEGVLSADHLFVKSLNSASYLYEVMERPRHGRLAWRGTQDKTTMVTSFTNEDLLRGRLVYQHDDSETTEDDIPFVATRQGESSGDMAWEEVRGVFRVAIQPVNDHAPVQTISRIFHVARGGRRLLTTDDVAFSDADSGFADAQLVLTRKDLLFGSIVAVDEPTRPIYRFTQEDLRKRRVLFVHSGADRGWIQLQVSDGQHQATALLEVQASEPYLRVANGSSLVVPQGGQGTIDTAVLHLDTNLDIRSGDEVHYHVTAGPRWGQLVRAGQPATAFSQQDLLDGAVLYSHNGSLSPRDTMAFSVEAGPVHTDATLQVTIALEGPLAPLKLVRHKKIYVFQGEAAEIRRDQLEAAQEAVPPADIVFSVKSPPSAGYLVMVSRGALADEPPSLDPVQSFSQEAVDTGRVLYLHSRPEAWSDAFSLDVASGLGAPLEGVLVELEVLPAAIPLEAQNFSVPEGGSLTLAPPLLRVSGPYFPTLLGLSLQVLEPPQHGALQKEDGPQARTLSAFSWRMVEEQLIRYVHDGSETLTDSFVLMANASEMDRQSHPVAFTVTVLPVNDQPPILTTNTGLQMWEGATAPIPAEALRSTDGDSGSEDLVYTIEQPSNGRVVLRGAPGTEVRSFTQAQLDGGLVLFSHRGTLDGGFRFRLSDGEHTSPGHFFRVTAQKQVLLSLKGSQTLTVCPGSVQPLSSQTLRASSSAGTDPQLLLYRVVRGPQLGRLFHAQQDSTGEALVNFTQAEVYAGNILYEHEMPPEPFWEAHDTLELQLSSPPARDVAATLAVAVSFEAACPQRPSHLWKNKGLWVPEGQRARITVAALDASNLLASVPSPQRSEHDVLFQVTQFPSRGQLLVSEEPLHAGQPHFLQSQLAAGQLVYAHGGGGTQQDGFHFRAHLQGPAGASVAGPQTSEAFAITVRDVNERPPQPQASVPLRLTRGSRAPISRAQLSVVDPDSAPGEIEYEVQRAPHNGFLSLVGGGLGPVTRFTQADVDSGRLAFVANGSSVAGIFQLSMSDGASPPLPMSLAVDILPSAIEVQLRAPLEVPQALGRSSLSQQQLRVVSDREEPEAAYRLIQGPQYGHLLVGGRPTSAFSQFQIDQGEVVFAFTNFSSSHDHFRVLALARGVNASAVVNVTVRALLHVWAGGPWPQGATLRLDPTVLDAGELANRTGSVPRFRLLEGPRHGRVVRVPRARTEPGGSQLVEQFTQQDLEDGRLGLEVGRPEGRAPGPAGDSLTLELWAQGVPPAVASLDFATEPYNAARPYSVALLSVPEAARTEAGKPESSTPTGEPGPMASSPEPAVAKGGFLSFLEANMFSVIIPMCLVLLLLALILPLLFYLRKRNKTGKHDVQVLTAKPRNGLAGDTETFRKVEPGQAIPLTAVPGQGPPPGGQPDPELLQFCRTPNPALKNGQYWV", "test": "ELISA of soluble scFv antibodies with cell lines", "assay_type": "binding", "parameters": "Cultured human melanoma cells Colo38, FO-1, SK-MEL-28 and Melur, all of which express HMW-MAA; endogenous in cells; host or cells: Colo38, FO-1, SK-MEL-28, Melur human melanoma cells", "protocol": "as §1, §2"}, "[3]": {"target": "T1, HMW-MAA", "test": "Competition assay to map the antigenic determinant on SK-MEL-28 cells", "assay_type": "binding", "parameters": "from tissue; host or cells: human nevi, primary and metastatic melanoma lesions (frozen sections)", "settings": "biotinylated mAb VF1-TP34, competitor PP scFv C21", "protocol": "FIG. 5. Spatial proximity of the determinant defined by scFv C21 and of that defined by mouse mAb VF1-TP34 on HMW-MAA^+ melanoma cells SK-MEL-28. Varying concentrations of mAb VF1-TP34 (-●-) (left panel) were mixed with biotinylated scFv C21 (0.25 μg/well). The mixture was then transferred to wells containing HMW-MAA^+ cells and incubated for 1 h at 4° C. Binding of antibodies was detected using SA-HRP. Results are expressed as % inhibition. Likewise, varying amounts of PP scFv C21 (-▴-) (right panel) were mixed with biotinylated mAb VF1-TP34 (40 ng/well). The mixture was then transferred to wells containing HMW-MAA^+ cells and incubated for 1 h at 4° C. […]\nThe ELISA to test the reactivity of soluble scFv antibodies with synthetic peptides and melanoma cells and of mouse immune sera with melanoma cells and with peptides was performed as described (Desai et al., Cancer Res 58:2417-2425, 1998; Desai et al., J Immunol 165:3275-3283, 2000; Matsui et al., J Immunol 139:2088-2095, 1987). Results are expressed as absorbance of optical density (O.D.) at 450 nm. The competition assay to map the antigenic determinant recognized by scFv C21 was performed by mixing biotinylated scFv C21 (0.25 μg/well) with two-fold dilutions of mouse mAb or scFv PP or by mixing biotinylated mAb (at an optimal amount giving absorbance, measured at 450 nm of 1.0) with two fold dilutions of scFv PP. […]"}, "[4]": {"target": "T1, HMW-MAA", "test": "Indirect immunoprecipitation and SDS-PAGE from labeled Colo38 cell lysate", "assay_type": "binding", "protocol": "FIG. 3. Structural relationship between molecules recognized by scFv C21 and by HMW-MAA-specific mouse mAb 763.74 in a HMW-MAA^+ Colo38 cell lysate. A 1% NP-40 extract of ^125I-labeled Colo38 cells was immunodepleted with mAb 763.74. The immunodepleted cell extract was immunoprecipitated with insolubilized mAb 763.74 and scFv C21. Antigens were eluted and analyzed by SDS-PAGE in an 8% polyacrylamide gel. Gels were fixed, dried and autoradiographed for up to 1 day at −80° C. A 1% NP-40 extract of ^125I-labeled Colo38 cells immunodepleted with 100 kD MAA-specific mouse mAb 376.94 was used as a control.\nFIG. 4. Role of N-linked glycosylation in the expression of the antigenic determinant recognized by scFv C21 on HMW-MAA isolated from a HMW-MAA^+ Colo38 cell extract. A 1% NP-40 extract of Colo38 cells labelled with ^35S-methionine in the presence of tunicamycin (0, 2 and 3 μg/ml,) was immunoprecipitated with scFv C21. Antigens were eluted from the immunoadsorbent and analyzed by SDS-PAGE in an 8% polyacrylamide gel. Gels were fixed, dried and processed for fluorography for up to three days at −80° C. using Hyperfilm-ECL. HMW-MAA-specific mouse mAb 763.74 was used as a control.\nLabeling of cells with ^125Iodine (Na^125 I; Amersham) or with ^35S methionine (Trans-^35S-label, ICN Biochemicals, Costa Mesa, Calif.) in the presence of tunicamycin (Sigma Chemical Co.) was performed as described (Noronha et al., J Immunol 161:2968-2976, 1998; Desai et al., J Immunol 165:3275-3283, 2000). Solubilization of labelled cells, immunoprecipitation, SDS-PAGE, autoradiography and fluorography were performed as described (Desai et al., Cancer Res 58:2417-2425, 1998) except for the use of Gammon Bind plus sepharose (Amersham) instead of protein A coated with rabbit anti-mouse IgG antibodies."}}, "data": [{"molecule": "B1", "values": [{"measurement": "Reactivity in ELISA with Colo38, FF2376 fibroblasts and T24 bladder carcinoma cells", "setting": "[1]", "result": "selective reactivity with Colo38 cells"}, {"measurement": "Reactivity in ELISA with panel of human cell lines with differential HMW-MAA expression and rat neural cell line B49", "setting": "[2]; FIG. 1", "result": "reacted only with the melanoma cell lines Colo38, FO-1, Melur and SK-MEL-28"}, {"measurement": "Reactivity in ELISA relative to the other selected clones", "setting": "[2]; clones C3, C21, C29, C30", "result": "highest reactivity"}, {"measurement": "Inhibition of binding of mAb VF1-TP34 to SK-MEL-28 cells", "setting": "[3]", "result": "partially inhibited each other"}, {"measurement": "Effect of immunodepletion of Colo38 cell lysate with scFv C21 on components immunoprecipitated by mAb 763.74", "setting": "[4]", "result": "removed most, but not all the components immunoprecipitated by mAb 763.74"}, {"measurement": "Immunoprecipitation from 125I labeled Colo38 cells", "setting": "[4]", "result": "immunoprecipitated two components with the characteristic elecrophoretic profile of HMW-MAA components"}, {"measurement": "Intensity of HMW-MAA components immunoprecipitated from Colo38 cells labeled in the presence of tunicamycin", "setting": "[4]; 35S-methionine labeling, N-glycosylation inhibitor tunicamycin", "result": "marked reduction in the intensity of the HMW-MAA components immunoprecipitated"}, {"measurement": "Immunoprecipitation from Colo38 cell lysate immunodepleted with mAb 763.74", "setting": "[4]; sequential immunoprecipitation", "result": "did not immunoprecipitate any components"}, {"measurement": "Immunoprecipitation from Colo38 cell lysate immunodepleted with 100KD MAA-specific mAb 376.96", "setting": "[4]; specificity control of immunodepletion", "result": "immunoprecipitated the HMW-MAA components"}]}]}
